We go through 1 molecule from patent US20260016475A1 (VENTANA MEDICAL SYSTEMS, published 2026).

In test [1] the target is T1, human TAP2 protein (human, UniProt Q03519 1-686).
T1 construct: It is an intracellular protein; also called recombinant TAP2
T1 sequence: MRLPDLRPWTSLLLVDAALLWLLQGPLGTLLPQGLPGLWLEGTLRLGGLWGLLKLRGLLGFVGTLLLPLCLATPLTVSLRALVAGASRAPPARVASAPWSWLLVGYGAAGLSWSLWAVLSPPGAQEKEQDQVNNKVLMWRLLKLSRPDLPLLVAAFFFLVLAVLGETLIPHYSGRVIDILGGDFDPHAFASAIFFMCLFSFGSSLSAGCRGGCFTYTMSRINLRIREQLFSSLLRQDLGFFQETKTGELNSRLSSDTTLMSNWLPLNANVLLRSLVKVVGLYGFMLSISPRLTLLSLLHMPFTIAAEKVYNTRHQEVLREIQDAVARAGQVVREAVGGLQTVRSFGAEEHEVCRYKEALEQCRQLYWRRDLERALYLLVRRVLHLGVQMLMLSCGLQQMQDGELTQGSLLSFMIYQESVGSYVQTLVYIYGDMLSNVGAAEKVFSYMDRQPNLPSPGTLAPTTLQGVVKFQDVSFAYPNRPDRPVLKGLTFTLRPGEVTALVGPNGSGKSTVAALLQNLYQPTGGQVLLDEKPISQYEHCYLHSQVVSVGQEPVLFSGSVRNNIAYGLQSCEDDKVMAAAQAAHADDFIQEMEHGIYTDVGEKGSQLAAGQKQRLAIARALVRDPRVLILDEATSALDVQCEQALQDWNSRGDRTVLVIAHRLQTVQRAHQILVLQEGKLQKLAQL
As to the kind of experiment: western blot of lysates of HEK293T cells expressing TAP2. The protocol: Rabbit monoclonal antibody S14H22L21 was applied onto formalin fixed paraffin embedded tissue samples to assess the staining patterns of the antibody by IHC as described in Example 1. Tissue samples included the positive and negative controls listed in Example 1, 8 ccRCC tissues, and a tour of tumor array (see FIGS. 4A-4B and 5A-5C). Western blot analysis was carried out to assess the specificity of S14H22L21. Cell lysates from HEK293T cells, HEK293T cells expressing TAP1, and HEK293T cells expressing TAP2 were analyzed alongside lysates from a negative control cell line (RPMI6226) and two positive control cell lines (HDLM2 and U266B1).

Test [2] deals with T2, human TAP1 protein (human, UniProt Q03518 1-748).
T2 construct: It is an intracellular protein; also called recombinant TAP1
T2 sequence: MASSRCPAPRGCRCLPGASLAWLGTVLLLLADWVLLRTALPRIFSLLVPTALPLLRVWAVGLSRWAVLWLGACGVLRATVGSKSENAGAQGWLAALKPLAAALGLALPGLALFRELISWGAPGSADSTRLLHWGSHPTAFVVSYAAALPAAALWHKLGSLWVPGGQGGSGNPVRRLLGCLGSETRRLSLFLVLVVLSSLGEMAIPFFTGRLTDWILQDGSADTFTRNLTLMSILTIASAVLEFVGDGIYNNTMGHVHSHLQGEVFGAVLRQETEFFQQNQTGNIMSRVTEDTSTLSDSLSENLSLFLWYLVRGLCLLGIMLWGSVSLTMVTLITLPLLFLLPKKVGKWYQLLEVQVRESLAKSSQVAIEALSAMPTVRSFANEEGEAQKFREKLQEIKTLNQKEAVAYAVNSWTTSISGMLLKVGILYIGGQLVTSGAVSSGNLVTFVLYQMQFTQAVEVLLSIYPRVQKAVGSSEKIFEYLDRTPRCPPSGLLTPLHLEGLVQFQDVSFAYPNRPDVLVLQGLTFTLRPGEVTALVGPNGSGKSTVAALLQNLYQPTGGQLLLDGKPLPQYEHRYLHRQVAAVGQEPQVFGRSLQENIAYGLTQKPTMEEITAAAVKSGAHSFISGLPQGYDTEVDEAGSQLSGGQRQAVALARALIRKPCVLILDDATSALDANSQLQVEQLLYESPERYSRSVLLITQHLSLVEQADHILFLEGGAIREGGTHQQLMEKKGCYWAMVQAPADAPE
As to the kind of experiment: IHC on sections of cell blocks of 293T, 293T-TAP1 and 293T-TAP2 cells. An excerpt: anti-TAP1 rabbit monoclonal primary antibodies were directed against the sequence […] (SEQ ID NO: 23), which represents amino acids 625-640 of human TAP1. The peptide was synthesized and covalently conjugated to keyhole limpet haemocyanin (KLH) carrier protein. Rabbits were immunized with KLH-conjugated peptide with complete Freund's adjuvant followed by a series of booster injections of the same immunogen in incomplete Freund's adjuvant. The rabbit that produced the best positive polyclonal antibody by immunohistochemistry (IHC) was chosen for monoclonal development. IHC staining was performed on a BenchMark automated slide stainer at Roche Diagnostics in Tucson, AZ. The staining procedure included deparaffinization, pretreatment using standard Cell Conditioning 1, incubation with antibody (TAP1: 0.925 μg/mL) at 36° C. for 16 min. […] TAP1 was detected by immunohistochemistry (IHC) using OptiView Universal DAB detection kit (Ventana).
Rabbit monoclonal antibody S14H22L21 was applied onto formalin fixed paraffin embedded tissue samples to assess the staining patterns of the antibody by IHC as described in Example 1. […] Cell lysates from HEK293T cells, HEK293T cells expressing TAP1, and HEK293T cells expressing TAP2 were analyzed alongside lysates from a negative control cell line (RPMI6226) and two positive control cell lines (HDLM2 and U266B1).

For test [3], the target named is T3, human TAP1 peptide DGKPLPQYEHRYLHR (human, also: conjugated to KLH for immunisation).
T3 construct: Synthetic peptide, conjugated to KLH for immunisation; also called immunogenic peptide
T3 peptide: DGKPLPQYEHRYLHR
In words: raised against the peptide; ELISA screen of antibody-expressing cells on the immunogenic peptide (Example 1). A general note: In an ELISA, binding on a coated surface is turned into a signal by an enzyme label.

Where no end group is shown, it is not given here.

B1: rabbit anti-human TAP1 monoclonal antibody S14H22L21 (antibody, V domains shown)
VH: QSVKESEGGLFKPTDTLTLTCTVSGFSLSSYEVIWVRQAPGKGLEWIGNIGWRDTTFYANWAKSRSTFTRDTNLNTVTLKMTSLTAADTATYFCARDNGYFGIDYWGPGTLVTVSS
VL: DIVMTQTPASVEAAVGGTVTIKCQASQSISNYLAWYQQKPGQPPKLLIYKASTLASGVPSRFSGSGSGTQFTLTISGVQCDDAATYYCQQDFNYRNIENVFGGGTGVVVK
notes: Recombinant rabbit monoclonal, purified on Protein A; also called clone S14H22L21; TAP1 antibody
In the case of B1, the binding result in test [1] is “no binding”; in test [2], “binds”; in test [3], “binds”.
